# Measured values reported in the supplement of paper PMC12636428.
# Tested on: Saccharomyces cerevisiae
# Assay: transcriptional activation domain activity (GFP:mCherry ratio, weighted mean of sorted bins, harmonized to initial dataset scale) (arbitrary fluorescence ratio units); higher = stronger transcriptional activation
# Settings: beta-estradiol 1 µM; induction time 4 h
# Experimental: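 53-aa protein tiles (fungal proteins plus yeast TF control tiles) fused C-terminally to a DBD-estrogen-binding domain-mCherry synthetic TF, integrated in S. cerevisiae (URA3 locus) with a GFP reporter. Cells were induced with 1 uM beta-estradiol for 4 h at 30 C, FACS-sorted into 8 bins by GFP:mCherry ratio and barcodes sequenced. Activity is the read-weighted mean bin fluorescence (GFP:mCherry), averaged over barcodes (median 12); tiles under 50 reads were discarded. New active-learning values were harmonized by linear fit onto the scale of the initial (Hummel et al.) dataset. The assay saturates at low and high signal.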
row,Sequence,transcriptional activation domain activity
1,AKLALILVLFEVYVKWFKLEKLYGRSDFLLVESLHYQYFCILCLCVVEFVIWH,45300
2,AKLESCNPRAYLDPSTAPIATMARGNQRDKAREANLKKQAAQKKGNSMSGTEM,44300
3,AKMSVRPTVFGLNYIQLVAKLRLSLEDVRVEYLIYAAQILVLKDQFLRHEFHV,53000
4,AKNLHLHILRHPSKWMKLYFYLWPLIVFYHIPLQSFFDFNAVFMLLQVARFPN,50100
5,AKNLKYLFKVVLSMKGVPSFESSCKIKLLGIHFYYDQVYVYSLSMPMWDVFVF,73300
6,AKPDVKKAKAAPVASPKPKAKAAKKVAEPAVEEKKVEEKAEKLAKKAKATKAE,32700
7,AKQGEDDAEKSKRGRKRKESETLEANGEEAGDDAEPAAKKAKPASKPASKAAA,30100
8,AKRARKSSSSAAAKEEEGQPQQTAPAAAANGTAADEARADTTTASTKSDKKQK,28800
9,AKRGQNEALAGAKPERGGAGAKQDARAARGRAQGSGVRGAGRGAAGRGQAQQV,41100
10,AKRGRASSNASSVQGSTGAASGSSRNKRGGAAEERAGSTSADLANKTADQRKR,22900
11,AKSAKGGSRRKSAATSTRTSAPRRSTGNDTGRSFKPAKDARGSSSGDAEDKIK,37200
12,AKSAQRRADEPGVMSLGELAVLWVKRARHLGQSLLRVVLVSYAVDLPANCVAL,30100
13,AKSLRLTIDEVKMLHRPVIWYLIVMLVDTLTATYLQYNGFLLHRTHLRETLSV,44200
14,AKSNKRRRASAPSSNTFKGSKRSASNASSQSKASNSNRVIKRARRASSASTKK,20900
15,AKVWKFHFHGSYTKISVHVINMIYCTMRGHEIPSLHIFKCDRLLTLSVLLGYI,58200
16,AKYVTTSMEVTPVTFGTYRTVFLPNGGLFFAILTTIRDFVTRHGLHSKIAMIF,54300
17,ALAVMFAEAVALSWWVSALKGQTLECLHFQWEVGQSVLKILLKRRFWGWVCVA,46700

row,Sequence,transcriptional activation domain activity
1,ALCEDRSQTWHPGTQLDFPQELLDQLNYYLVNLRKYFNNESILFLVYLGCVIF,59600
2,ALCRVAARALDTVRMLSTKVRLMLVHAFRRLEPLDVAFQSRSAVPMMSLGIQL,66600
3,ALCSIAGLACFILFCFLRVRWPAMYAPRLNMKKHAPQPLPNSFLGWIVPVLRT,67400
4,ALDDKGNRDAFYSVLVNLMSKLCWAIVQYLESNSLRATYVIEARISEYTKFSI,42500
5,ALDFGLVVRHTTVQYPVPLRFGLLNGNFSFMPLIINSWNMISYILSIYSLVLL,64200
6,ALDSEQRRKGMSKPAPKKRGRKPNPNKKPKPPRDPNEPPKKRGRKPNPNKKVT,42300
7,ALEKDKKEEPKEDSKKDESKTEKKEEEDNKDENGRPKLVVKRLRKETTAAAAV,20000
8,ALGLLFVCEQIELYPQTARIFGLRLIYVILLLHLFLPFTDSLPWLKTLFSILT,54600
9,ALGLPARPVSHHILIAIPSGLPLRTHELFMQLLFEHLHLSAVMLVDRSIAQTY,55300
10,ALHHVAWWIIIFELFFTVGIIVALGLGGFGPHRGTVCRYLLYTTCSQACNSLY,35200
11,ALHLVWSGSTIYVKPLPACLVDFDFFMRFISPFPHIYEDACGFLLTYARLIVH,89800
12,ALIHLPRPQNELVLTLIIRWLVRTTSPLGVIRAAQTHIGAIGYPDVWPTVLFF,68900
13,ALILIFSQLTFTPYALESRNLHVAVRIFRVLIDLLEQAKSGKIRLTILQFLMR,71100
14,ALKALSFARLLVIAVLMDSFLFVFTSAILVIGIGTSFNQIACQVGIWWCIFLY,58400
15,ALKILVLLIFLMDTLHTYGVISYQWGLFLFCHHNATSACLSVLPWEIFMAVVL,56300
16,ALKILVLLVFIMDTLHTYGIISYQWGLFLYCHHNASFACLSDLPWEVFMCVAL,41200
17,ALKKKDGDKDSADFLSQLRMGKSVLHGVDKEGRPVVSVRVRLHKGGEQTEKSL,36600
